The DeepSol protein solubility set

experiment: soluble on expression in E. coli; label from the status in PepcDB or PDB records

Sequence	soluble on expression in E. coli
GMNVNFINPFLQSLLNVISTMASLELTPGKPQIKTDNLAKGDVSGLIGMVGPQTKGSLSITFEQKLVLQIMQNMLGENPGKINEEVTDLVGEITNMVTGGAKNLLGQKGYEFEMATPMVVSGQGHTISHKANGTKIIMPFTSSYGTAFIEVCFES	soluble
MGSDKIHHHHHHMAQYSAEFKQAKVLVLGDVMLDRYWFGATNRISPEAPVPVVRVQENEERAGGAANVAMNIASLNVPVQLMGLIGQDETGSALSLLLEKQKIDCNFVALETHPTITKLRILSRHQQLLRLDFEEDFNNVDCKDLLAKLESAVKNYGALILSDYGKGTLKDVQKMIQIARKANVPVLIDPKGTDFERYRGATLLTPNMSEFEAVVGKCNTEEEIIEKGLKLISDIELTALLVTRSEKGMTLLRPNQEPYHLPTVAKEVFDVTGAGDTVISVLATALADGRSFEESCYLANVAAGIVVGKLGTSTVSTVELENAIHARPETGFGIMSEAELKDAVAQAKARGEKIVMTNGCFDILHPGHISYLENARKLGDRLIVAVNSDDSVKRLKGESRPINNLENRMAVLAGLASVDWLVPFTEDTPQRLIGEILPDLLVKGGDYKPEEIAGSKEVWANGGDVKVLNFENGCSTTNVIEKIKLLKD	not soluble
MGSDKIHHHHHHMLQVTDVSLRFGDRKLFEDVNIKFTEGNCYGLIGANGAGKSTFLKILSGELDSQTGHVSLGKNERLAVLKQDHYAYEDERVLDVVIKGHERLYEVMKEKDEIYMKPDFSDEDGIRAAELEGEFAEMNGWNAEADAANLLSGLGIDPTLHDKKMAELENNQKIKVLLAQSLFGEPDVLLLDEPTNGLDIPAISWLEDFLINFDNTVIVVSHDRHFLNNVCTHIADLDFGKIKVYVGNYDFWYQSSQLAQKMAQEQNKKKEEKMKELQDFIARFSANASKSKQATSRKKQLEKIELDDIQPSSRRYPFVKFTPEREIGNDLLIVQNLSKTIDGEKVLDNVSFTMNPNDKAILIGDSEIAKTTLLKILAGEMEPDEGSFKWGVTTSLSYFPKDNSEFFEGVNMNLVDWLRQYAPEDEQTETFLRGFLGRMLFSGEEVKKKASVLSGGEKVRCMLSKMMLSSANVLLLDEPTNHLDLESITAVNDGLKSFKGSIIFTSYDFEFINTIANRVIDLNKQGGVSKEIPYEEYLQEIGVLK	not soluble
MTSGQFKPVPQILMELPPAEQQRLFNEAAAIIRHLEWTDAVQLTALVMGSEALQQQLLAMLVNYVTKELRAEIQYDD	soluble
MHPMNILLKLPLKIPLMIIEKAREILEKHPLCNHCLGRMFAKLGKGTNEERGKAIRLILSMELNREVKEPENCELCQGIFRRMNELLDLVRNAVEDYEFQTFQIGSRFPKDILEKEKKIWEEFGITTGEPINREFNRELGKLFAKVTGKIPNRERPDIVIIVEPFSSKVELQVNPIYVAGRYRKLVRGIPQTPAPGFEESIATIICRVFKKNFRGKCIFKGAGREDVDVRTLGRGRPFVVEIKKPRKRKVDLKLIEEEINSSGKVEVLELKFITPEESEKILTARHKKIYEALVYVKDGVSAEEVEKVVKSLKGSEIKQRTPRRVLNSRADIVRVRRVYNVSGEYIDEHHFKLKLVTDGGLYIKELISGDKGRTKPSVSEILGKEAWCEILDVLDVLDGDENVEGDS	soluble
MEQQQRYISVLDIGTSKVLALIGEVQDDDKINIVGLGQAPSRGLRAGMVTNIDATVQAIRQAVNDAELMADTKITHVTTGIAGNHIRSLNSQGVVKIKDGEVTQADIDRAIETAKAINIPPDQKILDAVVQDYIIDTQLGVREPIGMSGVRLDTRVHIITGASTAVQNVQKCIERCGLKSD	not soluble
MSGRGEPTMKTIIVGIDGSHAAITAALWGVDEAISRAVPLRLVSVIKPTHPSPDDYDRDLAHAERSLREAQSAVEAAGKLVKIETDIPRGPAGPVLVEASRDAEMICVGSVGIGRYASSILGSTATELAEKAHCPVAVMRSKVDQPASDINWIVVRMTDAPDNEAVLEYAAREAKLRQAPILALGGRPEELREIPDGEFERRVQDWHHRHPDVRVYPITTHTGIARFLADHDERVQLAVIGGGEAGQLARLVGPSGHPVFRHAECSVLVVRR	not soluble
GFNPIIGTGISYKLSKKWSLAAEAFYSRRKVTYTSEVKDQNYIDRNTIIINNNPVTFEVSTTFTGTTKGEFDIHYLEFPLLAQYAIGNNWQIHAGMYYSWAFSKTNKGTATGIIGRTDISNPNTVTDKEYNYSKEVNSRYYGFVAGAQYQLSPAVALDLRATYSCKSLYKEDWEGVPYTLKDLYVQFTVKYFFIRAKD	not soluble
MLMPRQTTPPLSLPLVGGGRFDLSAETSTRWTLICFYRGLHCPICATYLKELEKRVADFAERGVACVAVSSDSEERAQAMAEKVGGGTLRFAYDLPLAEARDWGLYISTSRGKTSIGIEEPALFSEPGLFLVTPERTLYYGAVQTMPFVRPHFSELVAALDFAIPNNYPARGEYTGAV	soluble
MGSDKIHHHHHHMPAIELSNGEARLLARPDLGAGLTAFDVLHDGVWQAIFRRVDPSTAHPFALSNILLVPFSGRVSGGGFTFDGTFHALPRNVETELYPIHGNGFSAAWDVASLSADLLTLTLSAEGPGPFRYDATMSYRLQGAGLLMELSLVNRARIRLPYGAGFHPWFVREPDTTLHAPARGVWLEQSDHLPKAHDAIAAQADLDFNRPKPLPARWINNWFDGWDGKARIHWPSRGLAVDVDASEGLRQYVVFSPAAAADFFCFEPVTHPVDAFNLPGKAEAHGLKILEPDESLAVSARVAADFG	not soluble
VPGPEYKVAILTVSDTVSAGAGPDRSGPRAVSVVDSSSEKLGGAKVVATAVVPDEVERIKDILQKWSDVDEMDLILTLGGTGFTPRDVTPEATKKVIERETPGLLFVMMQESLKITPFAMLARSAAGIRGSTLIINMPGNPNAVAECMEALLPALKHALKQIKGDKR	soluble
MEDKKDALISKTISMLLDNGFAVADISGQFSASFDIIARRNIERYVLKVLYNIDTLKPTTAYQLAKVAKFLRSTATIVGEKAGGGPLEDGVIYYRHGIPISSLDTFRDYINGEKPYIYSGPGGFYVKINGEALREMRMKMSLSIGYLSHYLGVSRRSVSLYENGSSATIDVFLKLQEIIKSDLVDHTDLFKIIPDNFQEEERVDDVYIQMLLDILERIGLDTKPAYRMPFDILARDEEVVSLIASLLSEEADKTKIEIMKKISSVLEDDAFLISKHSTTRENINGCPVINIVDLEKMTSKDELLRMLEKRAR	not soluble
MAHHHHHHMTSTLTNSNRINIPAVCRLRERNTNKTVGSGVLVAQGLLLTSATAIPTQSRATHIVATFFEGTKKSAVDVQLQPQRYYFASRYPPEMDYCLISCEEAPLLNVTPVHMALTGKGWAPVEEGDVVLIVEHPIGDVAGTAAVPLDGKATFSSTLSATGDGDFDSVRAPYTEQKRFEEVLRCRGNVSFLKSNGSWRTAGCPAFNEHGQLVGLQSQSRADGEGVVNRILSLISIVKHLFANVQLPHLPQEDVTFEDVWDTWYVTNDITRILAILANFKGKSMAQQVTWRLCELTAKPQLVKSIASNGGIEVILQNLSLFSSDEKLSESGLRALWNVSIGEEAHLATIIKKEGVQTILDVVESFPANETVLEFGAVLLHNIAGCRAAPNFSEAHGARALKALYPGFQQFRESVVLQKFALSFFATLARLNEDFARDLVQQHVIEHITHLVEEKPKQIFLMEIVVGFVAELAQYPQTVELMCSNTPQYAAASMSYLIDLLIHIILEYKDLDSLLVSGNRALWGLGNVPTCRGIILENPRGIDALRISLPPLIASTHR	soluble
MCQATNGPSRVVTKKHRKFFERHLQLLPSSHQGHDVNRMAIIFYSISGLSIFDVNVSAKYGDHLGWMRKHYIKTVLDDTENTVISGFVGSLVMNIPHATTINLPNTLFALLSMIMLRDYEYFETILDKRSLARFVSKCQRPDRGSFVSCLDYKTNCGSSVDSDDLRFCYIAVAILYICGCRSKEDFDEYIDTEKLLGYIMSQQCYNGAFGAHNEPHSGYTSCALSTLALLSSLEKLSDKFKEDTITWLLHRQVSSHGCMKFESELNASYDQSDDGGFQGRENKFADTCYAFWCLNSLHLLTKDWKMLCQTELVTNYLLDRTQKTLTGGFSKNDEEDADLYHSCLGSAALALIEGKFNGELCIPQEIFNDFSKRCCF	soluble
MMSAYNKLVRDRVPEKILMSGKTYTAQKLTGQAYIQALAKIGTEEIREFASMKEREHALDSLADALEVIISLARAEGASIEDVERLRKQKEIERGGFERGIYLLDVSEE	not soluble
MKIGIVGLGRVGSSTAFALLMKGFAREMVLIDVDKKRAEGDALDLIHGTPFTRRANIYAGDYADLKGSDVVIVAAGVPQKPGETRLQLLGRNARVMKEIARNVSKYAPDSIVIVVTNPVDVLTYFFLKESGMDPRKVFGSGTVLDTARLRTLIAQHCGFSPRSVHVYVIGEHGDSEVPVWSGAMIGGIPLQNMCQVCQKCDSKILENFAEKTKRAAYEIIERKGATHYAIALAVADIVESIFFDEKRVLTLSVYLEDYLGVKDLCISVPVTLGKHGVERILELNLNEEELEAFRKSASILKNAINEITAEENKHQNTSG	soluble
MGSDKIHHHHHHMKFLRSLAFLNLQKKFKNKFNINILDYIKPKPTKICFKDFENKYLTAKQKEVLFDIESNNYSKVIFSGGIASGKTFLASYLLVKKLIENKSFYEQDTNNFIIGNSIGLLMTNTVKQIEKICSLLGIDYEKKKSGQSFCKIAGLKLNIYGGKNRDAFSKIRGGNSAIIYVNEATVIHRETLLEVIKRLRKGKEIIIFDTNPESPAHYFKTDYIENTDVFKTYNFTTYDNPLNSADFIQTQEKLYRRFPAYRARVLYGEWILNESTLFNEMIFNQDYEFKSPIMYIDPAFSVGGDNTAICVLERTFEKFYAYIYQDQKPVSDSLMLASIQVLIENFNVNTVYIEERDSTKGDGILTKTILFLRNKSSHYFKVAPIKPLSNKFKRICALIPLFESRKIEFLKIISKNVISDIYSYKGDGKTKDDALDSLANAYLLLTLNYKEKLFHFGRFKYL	not soluble
MKLYYKVGAASLAPHIILSEAGLPYELEAVDLKAKKTADGGDYFAVNPRGAVPALEVKPGTVITQNAAILQYIGDHSDVAAFKPAYGSIERARLQEALGFCSDLHAAFSGLFAPNLSEEARAGVIANINRRLGQLEAMLSDKNAYWLGDDFTQPDAYASVIIGWGVGQKLDLSAYPKALKLRERVLARPNVQKAFKEEGLN	soluble
SKLDSYTHLSFYEKRELFRKKLREIEGPEVTLVNEVDDEPCPSLDFQFISQYRLTQGVIPPDPNFQSGCNCSSLGGCDLNNPSRCECLDDLDEPTHFAYDAQGRVRADTGAVIYECNSFCSCSMECPNRVVQRGRTLPLEIFKTKEKGWGVRSLRFAPAGTFITCYLGEVITSAEAAKRDKNYDDDGITYLFDLDMFDDASEYTVDAQNYGDVSRFFNHSCSPNIAIYSAVRNHGFRTIYDLAFFAIKDIQPLEELTFDYAGAKDFSPVQSQKSQQNRISKLRRQCKCGSANCRGWLFG	soluble
MSPLWLVVFIVPLASGISLSDCSKKNSCYGSPVNCQPGIDCHVLLRFEDDGTLDVHLQNFTAPDGYVALAYNSNQNAPTEYLICIPHERKRLRGISSQGEIITITEQNMAQYVAQMDTNTFICSFVGKEIPSNFRMQSNFVVSEGLFANESNIPTTYKLEPISTDSVFFHPIAATIGRQDEALSEDEEKLATDLLGKVQRLSDHDSESTDMEAILNEKNRFTIEEFEEKLFSAMSNRRRPIKKFEREEEDQDDDEYSEVEEKESHPKKRREHKKGRHTRVLSDEQEEDYDQYEDDMPSKKRKRPFNSEELENGEDVDFGKKSNKNSQKGTFDGQRQR	not soluble
